How the values were obtained:
[1] = target: CD123 combined mutant R84Q-V85I (Homo sapiens (Human)) (UniProt P26951); assay: scFv-luciferase binding to transfected HEK 293T cells (FIG. 4A)
[2] = target: CD123 combined mutant R84Q-V85M (Homo sapiens (Human)) (UniProt P26951); assay: as above
wild-type CD123 protein = target: T1, wild-type CD123 protein (Homo sapiens (Human), UniProt P26951 19-378); assay: scFv-luciferase binding to HEK 293T cells transfected with wildtype or mutant CD123
T1 construct: no signal peptide limits are stated; also called alpha chain of interleukin-3 receptor
Protocol: HEK 293T cells were transfected with wildtype or indicated CD123 mutant and then incubated with anti-CD123 scFv-luciferase fusion proteins. (B) Western blot of CD123 expression. HEK293T cells were transfected with flag tagged wild-type or indicated CD123 mutants.
HEK 293T cells were transfected with wildtype or indicated CD123 mutant and then incubated with anti-CD123 scFv-luciferase fusion proteins. […] The expression of these mutants was confirmed by Western blot (FIG. 3B).

wild-type CD33 protein = target: T2, wild-type CD33 protein (Homo sapiens (Human), UniProt P20138 18-364); assay: scFv-luciferase binding to HEK 293T cells transfected with wildtype or mutant CD33 (RLU)
T2 construct: Expressed in transfected HEK 293T cells; A flag tag is mentioned for the Western blot constructs; no signal peptide limits are stated; also called Siglec3
Protocol: FIG. 1A-D. Determination of epitopes of CD33 that mediate the interaction by anti-CD33 scFv clone my9.6 or HM195. (A) Binding affinity of indicated CD33 mutations with anti-CD33 scFV clone my9.6. HEK 293T cells were transfected with wildtype or indicated CD33 mutant and then incubated with anti-CD33 scFV-luciferase fusion proteins, RLU: relative luminescence units. (B) Western blot of CD33 expression. HEK293T cells were transfected with flag tagged wild-type or indicated CD33 mutants. (C) Binding affinity of additional CD33 mutations. RLU: relative luminescence units (D) Western blot of CD33 expression. HEK293T cells were transfected with flag tagged wild-type or indicated CD33 mutants.
HEK 293T cells were transfected with wildtype or certain CD33 mutants and then incubated with anti-CD33 scFV-luciferase fusion proteins. The mutated residues included W22, C41, W60, I105, D112, Y116, F118, S131, and P132. The tested antibodies included my9.6 and HM195. […] FIGS. 1B and […] present Western blot images of CD33 expression from the transfected cells.

CD123 combined mutant R84Q-V85I (Homo sapiens (Human)), sequence (P26951 19-378 R84Q/V85I limits assumed): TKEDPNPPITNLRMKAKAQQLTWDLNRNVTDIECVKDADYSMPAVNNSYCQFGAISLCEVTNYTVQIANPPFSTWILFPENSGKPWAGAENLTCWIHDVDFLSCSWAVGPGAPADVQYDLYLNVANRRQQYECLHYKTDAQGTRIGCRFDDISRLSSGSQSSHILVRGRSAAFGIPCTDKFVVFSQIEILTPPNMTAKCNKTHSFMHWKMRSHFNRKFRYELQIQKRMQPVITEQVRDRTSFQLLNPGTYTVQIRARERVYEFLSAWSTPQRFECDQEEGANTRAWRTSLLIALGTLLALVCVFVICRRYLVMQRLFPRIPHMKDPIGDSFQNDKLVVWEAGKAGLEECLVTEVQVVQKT
T1 sequence (P26951 19-378 limits assumed): as the sequence (P26951 19-378 R84Q/V85I limits assumed) above, with Q66R, I67V counted along it
T2 sequence (P20138 18-364 limits assumed): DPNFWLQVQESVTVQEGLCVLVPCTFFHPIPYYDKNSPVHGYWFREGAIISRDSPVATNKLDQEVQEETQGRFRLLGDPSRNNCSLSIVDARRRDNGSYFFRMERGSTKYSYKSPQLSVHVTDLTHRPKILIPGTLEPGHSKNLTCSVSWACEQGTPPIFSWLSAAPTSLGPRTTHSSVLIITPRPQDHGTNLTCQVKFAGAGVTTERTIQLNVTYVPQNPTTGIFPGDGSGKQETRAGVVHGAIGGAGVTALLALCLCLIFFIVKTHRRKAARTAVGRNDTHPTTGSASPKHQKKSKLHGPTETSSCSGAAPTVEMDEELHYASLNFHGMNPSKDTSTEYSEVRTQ
CD123 combined mutant R84Q-V85M (Homo sapiens (Human)), sequence (P26951 19-378 R84Q/V85M limits assumed): as the sequence (P26951 19-378 R84Q/V85I limits assumed) above, with I67M counted along it

Which fold decrease of affinity (combined mutant against reference) [1] does the source give for “anti-CD123 scFv clone CSL362, scFv-luciferase fusion protein” here?
The fold decrease of affinity (combined mutant against reference) was 100 fold.

What about the fold decrease of affinity (combined mutant against reference) [2] of the same molecule?
The fold decrease of affinity (combined mutant against reference) was 100 fold.

B1: anti-CD123 scFv clone 32716, scFv-luciferase fusion protein (scFv, V domains shown)
VH: QIQLVQSGPELKKPGETVKISCKASGYIFTNYGMNWVKQAPGKSFKWMGWINTYTGESTYSADFKGRFAFSLETSASTAYLHINDLKNEDTATYFCARSGGYDPMDYWGQGTSVTVSS
VL: DIVLTQSPASLAVSLGQRATISCRASESVDNYGNTFMHWYQQKPGQPPKLLIYRASNLESGIPARFSGSGSRTDFTLTINPVEADDVATYYCQQSNEDPPTFGAGTKLELK
Does B1 bind (wild-type CD123 protein)?
Result: binds

B2: anti-CD33 scFv clone HM195, scFv-luciferase fusion protein (scFv, V domains shown)
VH: QVQLVQSGAEVKKPGSSVKVSCKASGYTFTDYNMHWVRQAPGQGLEWIGYIYPYNGGTGYNQKFKSKATITADESTNTAYMELSSLRSEDTAVYYCARGRPAMDYWGQGTLVTVSS
VL: DIQMTQSPSSLSASVGDRVTITCRASESVDNYGISFMNWFQQKPGKAPKLLIYAASNQGSGVPSRFSGSGSGTDFTLTISSLQPDDFATYYCQQSKEVPWTFGQGTKVEIK
notes: Tested as an scFv-luciferase fusion protein
Does B2 bind (wild-type CD33 protein)?
Result: binds

From patent US20240238420A1 (WUHAN UNIVERSITY, published 2024)
